Values quoted from earlier work as cited in PMC10086210.

Molecular target: PD-L1 (Homo sapiens) (UniProt Q9NZQ7)
UniProt Q9NZQ7, sequence (Q9NZQ7 19-238): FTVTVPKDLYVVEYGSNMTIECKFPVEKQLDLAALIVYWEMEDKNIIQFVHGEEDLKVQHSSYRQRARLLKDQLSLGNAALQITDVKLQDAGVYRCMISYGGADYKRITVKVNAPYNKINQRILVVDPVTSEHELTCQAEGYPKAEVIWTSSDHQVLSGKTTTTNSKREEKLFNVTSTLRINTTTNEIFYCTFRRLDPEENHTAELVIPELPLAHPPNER

Kd: 510 nM
Substance: DPPA-1
